Here are results for one molecule from publication PMC5779224 (2017).

Usually Kd stands for a measure of binding affinity in units of concentration.

One test deals with T1, AnkB ΔZZUD (human, UniProt Q01484-2 1-1872).
T1 chain: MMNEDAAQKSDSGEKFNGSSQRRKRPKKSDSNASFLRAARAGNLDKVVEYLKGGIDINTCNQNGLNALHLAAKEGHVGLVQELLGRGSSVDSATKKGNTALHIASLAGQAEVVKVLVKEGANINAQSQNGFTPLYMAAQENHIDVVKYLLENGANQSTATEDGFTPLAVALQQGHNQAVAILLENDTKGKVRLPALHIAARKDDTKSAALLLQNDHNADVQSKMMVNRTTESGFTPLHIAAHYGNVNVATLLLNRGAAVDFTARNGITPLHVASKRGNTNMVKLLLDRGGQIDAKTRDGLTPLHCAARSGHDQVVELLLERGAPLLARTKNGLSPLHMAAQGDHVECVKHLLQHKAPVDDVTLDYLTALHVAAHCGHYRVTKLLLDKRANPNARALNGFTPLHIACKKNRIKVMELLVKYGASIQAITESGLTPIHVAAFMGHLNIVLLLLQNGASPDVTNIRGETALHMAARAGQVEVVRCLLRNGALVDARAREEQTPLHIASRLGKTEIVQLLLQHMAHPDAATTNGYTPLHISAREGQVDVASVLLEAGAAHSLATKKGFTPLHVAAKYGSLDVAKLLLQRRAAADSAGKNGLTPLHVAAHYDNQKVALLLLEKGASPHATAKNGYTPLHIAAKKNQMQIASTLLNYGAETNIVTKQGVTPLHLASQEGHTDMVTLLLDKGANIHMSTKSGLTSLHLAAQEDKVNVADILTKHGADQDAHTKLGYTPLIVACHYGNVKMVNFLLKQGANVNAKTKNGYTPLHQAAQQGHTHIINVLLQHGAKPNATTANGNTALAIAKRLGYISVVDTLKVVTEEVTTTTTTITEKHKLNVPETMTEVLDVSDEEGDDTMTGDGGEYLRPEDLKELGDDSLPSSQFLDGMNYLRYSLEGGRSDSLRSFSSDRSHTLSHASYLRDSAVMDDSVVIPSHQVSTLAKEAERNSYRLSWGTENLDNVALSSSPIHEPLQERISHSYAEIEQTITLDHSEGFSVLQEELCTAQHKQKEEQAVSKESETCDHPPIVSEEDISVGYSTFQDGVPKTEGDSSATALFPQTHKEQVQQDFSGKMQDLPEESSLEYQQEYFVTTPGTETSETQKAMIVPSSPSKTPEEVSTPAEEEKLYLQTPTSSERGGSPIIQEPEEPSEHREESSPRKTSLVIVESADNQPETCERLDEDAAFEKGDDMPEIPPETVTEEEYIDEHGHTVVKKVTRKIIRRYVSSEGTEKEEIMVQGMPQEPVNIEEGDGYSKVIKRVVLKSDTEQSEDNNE
The experiment in a line: ITC. A general note: Isothermal titration calorimetry measures the heat released or taken up as one component is titrated into another.

For test [1], the target named is T2, AnkB 28–847 (MBD + partial AI-c) (human, UniProt Q01484-2 28-847).
T2 chain: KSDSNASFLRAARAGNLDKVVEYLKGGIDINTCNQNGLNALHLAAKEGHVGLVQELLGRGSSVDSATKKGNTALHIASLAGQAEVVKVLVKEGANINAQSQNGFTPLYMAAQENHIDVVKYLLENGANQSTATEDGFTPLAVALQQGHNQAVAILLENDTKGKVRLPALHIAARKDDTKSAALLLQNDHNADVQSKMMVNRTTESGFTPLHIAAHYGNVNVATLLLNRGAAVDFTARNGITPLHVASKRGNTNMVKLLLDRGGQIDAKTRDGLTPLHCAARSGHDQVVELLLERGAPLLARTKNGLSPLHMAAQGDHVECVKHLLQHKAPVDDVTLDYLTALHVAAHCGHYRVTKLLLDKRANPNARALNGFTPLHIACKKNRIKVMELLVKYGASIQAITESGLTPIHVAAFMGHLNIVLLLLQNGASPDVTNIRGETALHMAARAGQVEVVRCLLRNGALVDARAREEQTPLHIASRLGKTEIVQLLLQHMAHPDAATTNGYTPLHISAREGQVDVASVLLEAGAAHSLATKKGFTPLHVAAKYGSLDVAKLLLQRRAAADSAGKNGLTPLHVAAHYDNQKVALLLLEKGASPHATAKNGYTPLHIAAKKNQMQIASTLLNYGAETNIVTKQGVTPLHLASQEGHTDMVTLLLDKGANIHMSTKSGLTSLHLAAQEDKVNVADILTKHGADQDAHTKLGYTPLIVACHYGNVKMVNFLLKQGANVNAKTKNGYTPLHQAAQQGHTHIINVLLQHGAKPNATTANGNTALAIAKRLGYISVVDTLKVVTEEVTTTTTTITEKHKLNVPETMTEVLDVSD
In words: ITC.

In test [2] the target is T3, AnkG 38–855 (AnkG MBD-AI-c protein; MBD + partial AI-c) (rat, UniProt O70511-1 38-855).
T3 chain: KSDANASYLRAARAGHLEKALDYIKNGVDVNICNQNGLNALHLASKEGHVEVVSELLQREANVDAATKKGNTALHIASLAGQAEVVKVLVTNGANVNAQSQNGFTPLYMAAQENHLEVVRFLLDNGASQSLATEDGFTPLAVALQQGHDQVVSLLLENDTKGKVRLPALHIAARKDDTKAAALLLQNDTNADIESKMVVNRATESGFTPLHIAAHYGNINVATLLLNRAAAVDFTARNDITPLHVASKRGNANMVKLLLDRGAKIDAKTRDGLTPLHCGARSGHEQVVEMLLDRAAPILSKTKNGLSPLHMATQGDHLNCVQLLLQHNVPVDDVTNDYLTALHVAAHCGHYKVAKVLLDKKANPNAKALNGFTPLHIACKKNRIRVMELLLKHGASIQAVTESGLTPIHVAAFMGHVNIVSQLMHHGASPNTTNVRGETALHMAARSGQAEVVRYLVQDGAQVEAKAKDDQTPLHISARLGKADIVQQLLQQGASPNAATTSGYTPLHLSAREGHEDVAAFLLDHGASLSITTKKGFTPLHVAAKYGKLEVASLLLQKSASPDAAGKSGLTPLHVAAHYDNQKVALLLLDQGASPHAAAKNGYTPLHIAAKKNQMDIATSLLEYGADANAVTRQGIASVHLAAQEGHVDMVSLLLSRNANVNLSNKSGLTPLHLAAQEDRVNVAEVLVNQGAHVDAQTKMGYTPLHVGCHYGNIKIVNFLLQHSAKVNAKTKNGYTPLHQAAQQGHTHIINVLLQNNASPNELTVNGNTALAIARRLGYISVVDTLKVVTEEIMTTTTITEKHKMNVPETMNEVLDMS
The experiment in a line: ITC; reported in Wang et al 2014.

For the molecule SDDSLVDYGEGGEGQFNEDGSFIGQYTV (domain or fragment) [NF186 (aa 1187–1214)], the Kd with AnkB ΔZZUD turned out to be 14 µM; in test [1] it was 490 nM; in test [2], 210 nM.
